# According to PMC4643126, “On the Ancestral UDP-Glucose Pyrophosphorylase Activity of GalF from Escherichia coli” (Frontiers in Microbiology, 2015):
# Target: the molecule itself
# Assay: SEC; gel filtration of the purified protein on Superdex 200 HR 10/30 in 25 mM Tris-HCl pH 8.0, 100 mM NaCl, 0.1 mM EDTA; mass from a calibration plot of standards
row,Protein,stoichiometry N
1,"GalU (UDP-glucose pyrophosphorylase) from Escherichia coli (enzyme, Escherichia coli K-12, UniProt P0AEP3 1-302, looked up, GalU, E. coli K-12, gene galU (909 bp) amplified from genomic DNA, codes for 302 amino acids; expressed from pET28c as an untagged protein; also called UDP-Glc PPase; UTP:glucose-1-phosphate uridylyltransferase; source: E. coli BL21 Star (DE3), purified (DEAE-Sepharose)) MAAINTKVKKAVIPVAGLGTRMLPATKAIPKEMLPLVDKPLIQYVVNECIAAGITEIVLVTHSSKNSIENHFDTSFELEAMLEKRVKRQLLDEVQSICPPHVTIMQVRQGLAKGLGHAVLCAHPVVGDEPVAVILPDVILDEYESDLSQDNLAEMIRRFDETGHSQIMVEPVADVTAYGVVDCKGVELAPGESVPMVGVVEKPKADVAPSNLAIVGRYVLSADIWPLLAKTPPGAGDEIQLTDAIDMLIEKETVEAYHMKGKSHDCGNKLGYMQAFVEYGIRHNTLGTEFKAWLEEEMGIKK",4
2,"GalU_(K202A) (enzyme, Escherichia coli K-12, UniProt P0AEP3 1-302, looked up, GalU, E. coli K-12, 302 amino acids, untagged, with K202A; Mutagenesis on the plasmid of the wild-type enzyme; source: E. coli BL21 Star (DE3), purified (DEAE-Sepharose)) MAAINTKVKKAVIPVAGLGTRMLPATKAIPKEMLPLVDKPLIQYVVNECIAAGITEIVLVTHSSKNSIENHFDTSFELEAMLEKRVKRQLLDEVQSICPPHVTIMQVRQGLAKGLGHAVLCAHPVVGDEPVAVILPDVILDEYESDLSQDNLAEMIRRFDETGHSQIMVEPVADVTAYGVVDCKGVELAPGESVPMVGVVEAPKADVAPSNLAIVGRYVLSADIWPLLAKTPPGAGDEIQLTDAIDMLIEKETVEAYHMKGKSHDCGNKLGYMQAFVEYGIRHNTLGTEFKAWLEEEMGIKK",4
3,"GalU_(T20M/R21H) (enzyme, Escherichia coli K-12, UniProt P0AEP3 1-302, looked up, GalU, E. coli K-12, 302 amino acids, untagged, with T20M and R21H; Mutagenesis on the plasmid of the wild-type enzyme; also called GalU T20M/R21H double mutant; source: E. coli BL21 Star (DE3), purified (DEAE-Sepharose)) MAAINTKVKKAVIPVAGLGMHMLPATKAIPKEMLPLVDKPLIQYVVNECIAAGITEIVLVTHSSKNSIENHFDTSFELEAMLEKRVKRQLLDEVQSICPPHVTIMQVRQGLAKGLGHAVLCAHPVVGDEPVAVILPDVILDEYESDLSQDNLAEMIRRFDETGHSQIMVEPVADVTAYGVVDCKGVELAPGESVPMVGVVEKPKADVAPSNLAIVGRYVLSADIWPLLAKTPPGAGDEIQLTDAIDMLIEKETVEAYHMKGKSHDCGNKLGYMQAFVEYGIRHNTLGTEFKAWLEEEMGIKK",4
